T1: soluble p97 (amino acids 20-710 of human p97 precursor), 6x his tag (human, UniProt P08582 20-710)
T1 construct: range 20-710; also called p97 melanotransferrin; recombinant p97; not shown: 6x his tag from vector pSecTag2
T1 sequence: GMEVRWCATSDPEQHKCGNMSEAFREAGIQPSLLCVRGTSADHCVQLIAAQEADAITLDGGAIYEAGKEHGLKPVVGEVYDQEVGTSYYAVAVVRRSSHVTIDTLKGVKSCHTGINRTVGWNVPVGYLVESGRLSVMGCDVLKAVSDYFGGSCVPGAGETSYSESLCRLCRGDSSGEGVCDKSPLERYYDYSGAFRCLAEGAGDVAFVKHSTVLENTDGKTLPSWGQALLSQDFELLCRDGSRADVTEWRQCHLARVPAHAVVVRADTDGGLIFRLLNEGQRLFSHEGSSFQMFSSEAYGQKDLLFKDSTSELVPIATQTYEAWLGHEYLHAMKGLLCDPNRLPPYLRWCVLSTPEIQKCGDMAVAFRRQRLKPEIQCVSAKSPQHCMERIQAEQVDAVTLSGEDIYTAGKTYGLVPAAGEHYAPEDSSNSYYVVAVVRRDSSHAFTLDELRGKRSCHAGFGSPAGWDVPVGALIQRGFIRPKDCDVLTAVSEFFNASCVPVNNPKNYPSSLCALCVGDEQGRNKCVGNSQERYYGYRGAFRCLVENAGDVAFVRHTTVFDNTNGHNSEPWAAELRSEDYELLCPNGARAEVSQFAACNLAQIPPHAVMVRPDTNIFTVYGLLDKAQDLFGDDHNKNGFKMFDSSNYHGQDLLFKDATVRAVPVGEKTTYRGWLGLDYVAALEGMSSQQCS

T2: p97 antigen on human melanoma H3677 cells (human, UniProt P08582 20-709)
T2 sequence: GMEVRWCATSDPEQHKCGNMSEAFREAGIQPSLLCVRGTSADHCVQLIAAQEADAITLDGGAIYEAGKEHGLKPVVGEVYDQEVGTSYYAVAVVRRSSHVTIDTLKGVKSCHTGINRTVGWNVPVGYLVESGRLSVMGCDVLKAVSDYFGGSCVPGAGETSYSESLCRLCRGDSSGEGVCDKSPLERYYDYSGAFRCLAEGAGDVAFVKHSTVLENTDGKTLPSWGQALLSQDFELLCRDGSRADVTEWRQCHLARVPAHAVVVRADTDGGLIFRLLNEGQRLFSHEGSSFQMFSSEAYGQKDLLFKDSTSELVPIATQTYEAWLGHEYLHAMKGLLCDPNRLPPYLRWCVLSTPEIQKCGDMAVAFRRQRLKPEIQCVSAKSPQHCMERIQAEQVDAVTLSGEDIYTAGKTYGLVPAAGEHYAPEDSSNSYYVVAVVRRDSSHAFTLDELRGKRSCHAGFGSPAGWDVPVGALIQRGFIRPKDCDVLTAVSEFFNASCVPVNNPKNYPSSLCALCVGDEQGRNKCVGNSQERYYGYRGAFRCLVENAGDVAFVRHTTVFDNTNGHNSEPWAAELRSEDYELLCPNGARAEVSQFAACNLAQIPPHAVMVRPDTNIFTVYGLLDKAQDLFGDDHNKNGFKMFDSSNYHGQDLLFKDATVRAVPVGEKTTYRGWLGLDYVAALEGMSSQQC


What was measured:
[1] = molecular target: T1, soluble p97 (amino acids 20-710 of …); assay: SEC binding assay with purified p97 (discussion of the example)
[2] = molecular target: T1, soluble p97 (amino acids 20-710 of …); assay: SPR, Biacore 2000, 25 C; p97 immobilised on CM5 chip, scFv fusion injected; 1:1 model
[3] = molecular target: T2, p97 antigen on human melanoma H3677 …; assay: cell-based or functional assay

| Binder | percent of purified protein bound to antigen [1] [%] | Kd [2] [nM] | koff [2] [s⁻¹] | kon [2] [M⁻¹ s⁻¹] | IC50 of prodrug C-Mel on H3677 melanoma cells pre-treated with 10 nM fusion protein, unbound material washed off; cell viability by alamarBlue [3] [nM] |
| --- | --- | --- | --- | --- | --- |
| L49-sFv-bL triple mutant FP990 (K H39 Q, F H82B S, N H91 Y) (scFv) scFv: MEVQLQESGPSLVKPSQTLSLTCSVTGDSITSGYWNWIRQFPGNKLEYMGYISDSGITYYNPSLKSRISITRDTSKNQYYLQLNSVTAEDTATYYCARRTLATYYAMDYWGQGTSVTVSSGSTSGSGKPGSGEGSTKGDFVMTQTPLSLPVSLGDQASISCRASQSLVHSNGNTYLHWYLQKPGQSPKLLIYRVSNRFSGVPDRFSGSGSGTDFTLKISRVEAEDLGVYFCSQSTHVPPTFGGGTKLEIKRTPVSEKQLAEVVANTITPLMKAQSVPGMAVAVIYQGKPHYYTFGKADIAANKPVTPQTLFELGSISKTFTGVLGGDAIARGEISLDDAVTRYWPQLTGKQWQGIRMLDLATYTAGGLPLQVPDEVTDNASLLRFYQNWQPQWKPGTTRLYANASIGLFGALAVKPSGMPYEQAMTTRVLKPLKLDHTWINVPKAEEAHYAWGYRDGKAVRVSPGMLDAQAYGVKTNVQDMANWVMANMAPENVADASLKQGIALAQSRYWRIGSMYQGLGWEMLNWPVEANTVVETSFGNVALAPLPVAEVNPPAPPVKASWVHKTGSTGGFGSYVAFIPEKQIGIVMLANTSYPNPARVEAAYHILEALQ | 100 | 1.75 | 0.000782 | 448000 | 5000 |
| reverse orientation triple mutant FP999 (K H39 Q, F H82B S, N H91 Y, bL-L49-sFv orientation) (scFv, also called bL-L49-scFv) TPVSEKQLAEVVANTITPLMKAQSVPGMAVAVIYQGKPHYYTFGKADIAANKPVTPQTLFELGSISKTFTGVLGGDAIARGEISLDDAVTRYWPQLTGKQWQGIRMLDLATYTAGGLPLQVPDEVTDNASLLRFYQNWQPQWKPGTTRLYANASIGLFGALAVKPSGMPYEQAMTTRVLKPLKLDHTWINVPKAEEAHYAWGYRDGKAVRVSPGMLDAQAYGVKTNVQDMANWVMANMAPENVADASLKQGIALAQSRYWRIGSMYQGLGWEMLNWPVEANTVVETSFGNVALAPLPVAEVNPPAPPVKASWVHKTGSTGGFGSYVAFIPEKQIGIVMLANTSYPNPARVEAAYHILEALQMHGTKLMEVQLQESGPSLVKPSQTLSLTCSVTGDSITSGYWNWIRQFPGNKLEYMGYISDSGITYYNPSLKSRISITRDTSKNQYYLQLNSVTAEDTATYYCARRTLATYYAMDYWGQGTSVTVSSGSTSGSGKPGSGEGSTKGDFVMTQTPLSLPVSLGDQASISCRASQSLVHSNGNTYLHWYLQKPGQSPKLLIYRVSNRFSGVPDRFSGSGSGTDFTLKISRVEAEDLGVYFCSQSTHVPPTFGGGTKLEIKR | – | 1.71 | 0.000575 | 337000 | 5000 |

— patent US20060160174A1 (published 2006)
